What was measured:
Details in all cases: protein: commercial; hairpin (stem-loop), melted and reannealed
[1] = target: T1, Iron regulatory protein 1 (IRP1) (UniProt P21399 1-889); assay: fluorescence quenching (intrinsic); 25 °C, no Fe; 20 mM HEPES pH 7.4, 100 mM KCl, 1 mM MgCl2; 50 nM IRP1, 0-200 nM RNA; 15 min; 25 °C (5-30 °C series); Fe2+ 50 uM anaerobic where stated
T1 sequence: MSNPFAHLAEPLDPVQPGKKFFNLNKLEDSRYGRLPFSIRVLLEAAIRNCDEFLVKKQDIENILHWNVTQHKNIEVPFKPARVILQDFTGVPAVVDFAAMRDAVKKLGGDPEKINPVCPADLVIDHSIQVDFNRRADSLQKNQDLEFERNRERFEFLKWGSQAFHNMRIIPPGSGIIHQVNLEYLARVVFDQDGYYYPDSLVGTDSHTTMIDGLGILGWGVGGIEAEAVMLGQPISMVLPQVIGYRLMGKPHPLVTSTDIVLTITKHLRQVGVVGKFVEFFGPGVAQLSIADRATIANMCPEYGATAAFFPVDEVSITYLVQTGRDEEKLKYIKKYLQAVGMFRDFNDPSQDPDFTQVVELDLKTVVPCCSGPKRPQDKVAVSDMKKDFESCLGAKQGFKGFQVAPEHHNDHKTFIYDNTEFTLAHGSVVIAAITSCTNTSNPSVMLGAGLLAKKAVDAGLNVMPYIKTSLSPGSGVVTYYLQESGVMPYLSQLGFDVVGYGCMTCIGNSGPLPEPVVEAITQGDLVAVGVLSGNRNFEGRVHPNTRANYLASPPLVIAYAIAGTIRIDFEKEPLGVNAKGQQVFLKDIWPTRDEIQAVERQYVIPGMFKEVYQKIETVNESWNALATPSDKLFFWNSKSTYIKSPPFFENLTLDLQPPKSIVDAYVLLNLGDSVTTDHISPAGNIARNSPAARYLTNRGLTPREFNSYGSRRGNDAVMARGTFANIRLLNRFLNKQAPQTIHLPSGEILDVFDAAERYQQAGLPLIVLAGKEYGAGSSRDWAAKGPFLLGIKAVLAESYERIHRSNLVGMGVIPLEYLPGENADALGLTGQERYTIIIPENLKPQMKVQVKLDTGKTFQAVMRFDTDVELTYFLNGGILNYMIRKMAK

[2] = target: T1, Iron regulatory protein 1 (IRP1); assay: fluorescence quenching (intrinsic); 20 °C, no Fe; 20 mM HEPES pH 7.4, 100 mM KCl, 1 mM MgCl2; 50 nM IRP1, 0-200 nM RNA; 15 min; 25 °C (5-30 °C series); Fe2+ 50 uM anaerobic where stated
[3] = target: T1, Iron regulatory protein 1 (IRP1); assay: fluorescence quenching (intrinsic); 15 °C, no Fe; 20 mM HEPES pH 7.4, 100 mM KCl, 1 mM MgCl2; 50 nM IRP1, 0-200 nM RNA; 15 min; 25 °C (5-30 °C series); Fe2+ 50 uM anaerobic where stated
[4] = target: T1, Iron regulatory protein 1 (IRP1); assay: fluorescence quenching, Scatchard; 25 °C, no Fe (abstract gives 21.0); 20 mM HEPES pH 7.4, 100 mM KCl, 1 mM MgCl2; 50 nM IRP1, 0-200 nM RNA; 15 min; 25 °C (5-30 °C series); Fe2+ 50 uM anaerobic where stated
[5] = target: T1, Iron regulatory protein 1 (IRP1); assay: fluorescence quenching (intrinsic); 10 °C, no Fe; 20 mM HEPES pH 7.4, 100 mM KCl, 1 mM MgCl2; 50 nM IRP1, 0-200 nM RNA; 15 min; 25 °C (5-30 °C series); Fe2+ 50 uM anaerobic where stated
[6] = target: T1, Iron regulatory protein 1 (IRP1); assay: fluorescence quenching (intrinsic); 5 °C, no Fe; 20 mM HEPES pH 7.4, 100 mM KCl, 1 mM MgCl2; 50 nM IRP1, 0-200 nM RNA; 15 min; 25 °C (5-30 °C series); Fe2+ 50 uM anaerobic where stated
[7] = target: T1, Iron regulatory protein 1 (IRP1); assay: fluorescence quenching (intrinsic); 30 °C, no Fe; 20 mM HEPES pH 7.4, 100 mM KCl, 1 mM MgCl2; 50 nM IRP1, 0-200 nM RNA; 15 min; 25 °C (5-30 °C series); Fe2+ 50 uM anaerobic where stated

B1: alpha-Syn IRE RNA (SNCA 5'-UTR) (structured_RNA)
RNA: ACUGGGAGUGGCCAUUCGACGACAGUGUGGUGUAAAGGAAUUCAUUAGCC
Q: What does the source list for B1?
A: Kd [1]: 47.6 ± 1.7 nM; Kd [2]: 38.9 ± 1.5 nM; Kd [3]: 27.8 ± 1.2 nM; Ka [4]: 20.8 10^6 M-1; Kd [5]: 21.9 ± 0.8 nM; Kd [6]: 13.5 ± 0.6 nM; Kd [7]: 63.8 ± 3.2 nM
